T1: testis-specific protein NYD-TSP1 (human, UniProt Q9BXG8 1-430)
T1 construct: also called Hs.98226; cbe_3826540
T1 sequence: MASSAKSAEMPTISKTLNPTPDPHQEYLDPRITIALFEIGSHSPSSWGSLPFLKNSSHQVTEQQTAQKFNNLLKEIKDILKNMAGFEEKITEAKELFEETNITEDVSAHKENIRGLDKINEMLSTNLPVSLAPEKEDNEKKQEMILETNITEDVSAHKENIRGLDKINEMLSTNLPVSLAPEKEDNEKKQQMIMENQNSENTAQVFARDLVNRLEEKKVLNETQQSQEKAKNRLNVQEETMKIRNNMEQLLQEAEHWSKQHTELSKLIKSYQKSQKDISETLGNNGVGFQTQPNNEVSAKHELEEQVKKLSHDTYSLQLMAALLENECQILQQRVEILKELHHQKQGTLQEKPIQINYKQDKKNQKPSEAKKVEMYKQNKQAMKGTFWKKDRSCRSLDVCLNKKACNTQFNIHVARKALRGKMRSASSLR

T2: hypothetical protein FLJ20259 (human, UniProt Q2TAL8 1-776)
T2 construct: also called cbe_1469980
T2 sequence: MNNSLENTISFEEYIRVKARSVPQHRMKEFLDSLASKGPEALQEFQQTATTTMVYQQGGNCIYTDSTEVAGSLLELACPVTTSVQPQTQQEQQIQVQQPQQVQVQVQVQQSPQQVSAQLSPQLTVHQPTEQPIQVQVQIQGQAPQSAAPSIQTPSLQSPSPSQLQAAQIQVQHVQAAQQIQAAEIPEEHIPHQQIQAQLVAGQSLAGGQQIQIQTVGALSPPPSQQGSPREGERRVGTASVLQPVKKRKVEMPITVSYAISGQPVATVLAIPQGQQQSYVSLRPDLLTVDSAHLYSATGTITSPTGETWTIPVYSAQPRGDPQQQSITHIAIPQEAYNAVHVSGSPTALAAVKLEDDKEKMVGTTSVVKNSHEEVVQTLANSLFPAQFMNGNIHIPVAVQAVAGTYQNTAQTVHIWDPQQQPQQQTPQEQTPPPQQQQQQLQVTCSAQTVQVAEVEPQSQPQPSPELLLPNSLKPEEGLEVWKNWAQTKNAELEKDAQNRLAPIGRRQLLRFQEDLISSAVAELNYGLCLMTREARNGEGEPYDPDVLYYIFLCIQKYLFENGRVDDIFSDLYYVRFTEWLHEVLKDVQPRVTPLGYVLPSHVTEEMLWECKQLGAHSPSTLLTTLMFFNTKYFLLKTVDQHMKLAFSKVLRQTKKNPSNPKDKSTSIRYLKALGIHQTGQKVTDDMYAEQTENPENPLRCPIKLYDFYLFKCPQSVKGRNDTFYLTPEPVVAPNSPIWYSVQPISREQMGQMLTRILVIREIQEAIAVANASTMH

T3: pumilio homolog 1 (Drosophila) (human, UniProt Q14671 2-1186)
T3 construct: also called PUM1; cbe_4540466
T3 sequence: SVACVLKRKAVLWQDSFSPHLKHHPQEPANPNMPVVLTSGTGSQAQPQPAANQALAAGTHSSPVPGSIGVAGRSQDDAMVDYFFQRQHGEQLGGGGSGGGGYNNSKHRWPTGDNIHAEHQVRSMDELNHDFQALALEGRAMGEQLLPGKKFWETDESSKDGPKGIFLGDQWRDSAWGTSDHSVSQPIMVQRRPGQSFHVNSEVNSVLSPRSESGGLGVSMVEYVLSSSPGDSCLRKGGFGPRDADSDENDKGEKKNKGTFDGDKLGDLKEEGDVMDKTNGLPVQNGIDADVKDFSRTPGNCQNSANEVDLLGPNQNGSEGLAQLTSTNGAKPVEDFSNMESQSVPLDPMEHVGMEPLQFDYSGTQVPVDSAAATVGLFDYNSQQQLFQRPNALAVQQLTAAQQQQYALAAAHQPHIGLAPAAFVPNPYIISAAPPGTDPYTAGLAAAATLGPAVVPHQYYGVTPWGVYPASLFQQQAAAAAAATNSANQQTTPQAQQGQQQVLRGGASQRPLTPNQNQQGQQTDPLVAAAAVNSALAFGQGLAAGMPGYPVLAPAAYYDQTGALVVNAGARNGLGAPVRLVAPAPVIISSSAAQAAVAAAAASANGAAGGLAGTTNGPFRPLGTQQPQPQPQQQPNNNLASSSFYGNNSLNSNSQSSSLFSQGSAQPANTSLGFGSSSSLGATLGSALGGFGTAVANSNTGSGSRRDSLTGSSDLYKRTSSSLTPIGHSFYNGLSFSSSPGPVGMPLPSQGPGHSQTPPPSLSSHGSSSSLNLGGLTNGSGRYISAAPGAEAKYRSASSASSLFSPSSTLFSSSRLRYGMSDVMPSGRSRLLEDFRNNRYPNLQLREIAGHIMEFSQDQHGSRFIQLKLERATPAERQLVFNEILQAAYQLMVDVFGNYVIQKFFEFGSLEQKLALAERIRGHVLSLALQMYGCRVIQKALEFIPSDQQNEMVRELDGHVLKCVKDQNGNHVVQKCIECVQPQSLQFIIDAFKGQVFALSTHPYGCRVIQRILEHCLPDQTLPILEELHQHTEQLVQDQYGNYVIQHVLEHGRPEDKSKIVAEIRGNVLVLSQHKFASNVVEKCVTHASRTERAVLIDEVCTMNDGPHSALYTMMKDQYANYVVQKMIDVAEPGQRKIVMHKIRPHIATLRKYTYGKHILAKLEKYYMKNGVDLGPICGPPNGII

T4: EphB1 (human, UniProt P54762 18-984)
T4 construct: also called cbe_3810791
T4 sequence: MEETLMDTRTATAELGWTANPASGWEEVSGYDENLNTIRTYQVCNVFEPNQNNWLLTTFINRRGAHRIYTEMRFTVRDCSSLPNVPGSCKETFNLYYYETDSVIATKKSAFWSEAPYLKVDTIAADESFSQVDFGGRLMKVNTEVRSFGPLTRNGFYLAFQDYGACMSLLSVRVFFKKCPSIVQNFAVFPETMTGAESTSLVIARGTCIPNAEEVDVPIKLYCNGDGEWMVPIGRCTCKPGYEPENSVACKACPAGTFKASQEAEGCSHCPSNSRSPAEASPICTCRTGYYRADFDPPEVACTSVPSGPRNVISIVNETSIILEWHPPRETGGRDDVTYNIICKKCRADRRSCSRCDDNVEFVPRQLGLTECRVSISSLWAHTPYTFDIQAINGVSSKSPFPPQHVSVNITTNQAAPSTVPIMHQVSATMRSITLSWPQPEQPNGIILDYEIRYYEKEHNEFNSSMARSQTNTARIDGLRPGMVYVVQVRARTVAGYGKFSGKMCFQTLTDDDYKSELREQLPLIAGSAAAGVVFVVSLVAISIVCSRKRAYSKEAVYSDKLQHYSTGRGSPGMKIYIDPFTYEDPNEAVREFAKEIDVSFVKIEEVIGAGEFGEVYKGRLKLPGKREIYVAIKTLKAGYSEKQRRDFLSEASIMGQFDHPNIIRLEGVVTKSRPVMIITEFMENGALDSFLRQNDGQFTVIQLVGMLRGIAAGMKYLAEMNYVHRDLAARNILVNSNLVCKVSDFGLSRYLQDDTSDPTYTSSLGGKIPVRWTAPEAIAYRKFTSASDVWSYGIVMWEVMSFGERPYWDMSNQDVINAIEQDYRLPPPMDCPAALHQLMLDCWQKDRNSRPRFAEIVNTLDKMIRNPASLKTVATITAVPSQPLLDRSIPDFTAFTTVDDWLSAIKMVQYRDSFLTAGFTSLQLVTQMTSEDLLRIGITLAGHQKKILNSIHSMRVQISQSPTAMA

B1: RIL (other)
chain: MPHSVTLRGPSPWGFRLVGGRDFSAPLTISRVHAGSKAALAALCPGDLIQAINGESTELMTHLEAQNRIKGCHDHLTLSVSRPEGRSWPSAPDDSKAQAHRIHIDPEIQDGSPTTSRRPSGTGTGPEDGRPSLGSPYGQPPRFPVPHNGSSEATLPAQMSTLHVSPPPSADPARGLPRSRDCRVDLGSEVYRMLREPAEPVAAEPKQSGSFRYLQGMLEAGEGGDWPGPGGPRNLKPTASKLGAPLSGLQGLPECTRCGHGIVGTIVKARDKLYHPECFMCSDCGLNLKQRGYFFLDERLYCESHAKARVKPPEGYDVVAVYPNAKVELV
notes: also called cbe_4269628
B2: Prey1053670 (other)
chain: MSSDERKAFLQFTTGCSTLPPGGLANLHPRLTVVRKVDATDASYPSVNTCVHYLKLPEYSSEEIMRERLLAATMEKGFHLN
notes: also called Homo sapiens, Similar to CG5604 gene product, clone MGC:11330; cbe_3606990
B3: Human Papillomavirus 1a E2 (other)
chain: MENLSSRLDLLQEQLMNLYEQDSKLIEDQIKQWNLIRQEQVLFHFARKNGVMRIGLQAVPSLASSQEKAKTAIEMVLHLESLKDSPYGTEDWSLQDTSRELFLAPPAGTFKKSGSTLEVTYDNNPDNQTRHTIWNHVYYQNGDDVWRKVSSGVDAVGVYYLEHDGYKNYYVLFAEEASKYSTTGQYAVNYRGKRFTNVMSSTSSPRAAGAPAVHSDYPTLSESDTAQQSTSIDYTELPGQGETSQVRQRQQKTPVRRRPYGRRRSRSPRGGGRREGESTPSRTPGSVPSARDVGSIHTTPQKGHSSRLRRLLQEAWDPPVVCVKGGANQLKCLRYRLKASTQVDFDSISTTWHWTDRKNTERIGSARMLVKFIDEAQREKFLERVALPRSVSVFLGQFNGS
notes: also called HPV 1a E2; cbe_251917
B4: Human Papillomavirus 1a L2 (other)
chain: MYRLRRKRAAPKDIYPSCKISNTCPPDIQNKIEHTTIADKILQYGSLGVFLGGLGIGTARGSGGRIGYTPLGEGGGVRVATRPTPVRPTIPVETVGPSEIFPIDVVDPTGPAVIPLQDLGRDFPIPTVQVIAEIHPISDIPNIVASSTNEGESAILDVLRGNATIRTVSRTQYNNPSFTVASTSNISAGEASTSDIVFVSNGSGDRVVGEDIPLVELNLGLETDTSSVVQETAFSSSTPIAERPSFRPSRFYNRRLYEQVQVQDPRFVEQPQSMVTFDNPAFEPELDEVSIIFQRDLDALAQTPVPEFRDVVYLSKPTFSREPGGRLRVSRLGKSSTIRTRLGTAIGARTHFFYDLSSIAPEDSIELLPLGEHSQTTVISSNLGDTAFIQGETAEDDLEVISLETPQLYSEEELLDTNESVGENLQLTITNSEGEVSILDLTQSRVRPPFGTEDTSLHVYYPNSSKGTPIINPEESFTPLVIIALNNSTGDFELHPSLRKRRKRAYV
notes: also called HPV 1a L2; cbe_252041

Legend:
[1] = molecular target: B4; assay: Y2H; INT ID 451
[2] = molecular target: B4; assay: Y2H; INT ID 446
GNB2L1 = molecular target: T5, GNB2L1 (human, UniProt P63244 1-317); assay: Y2H; INT ID 420
T5 construct: also called cbe_4269834

ribosomal protein S10 = molecular target: T6, ribosomal protein S10 (human, UniProt P46783 1-165); assay: Y2H; INT ID 412
T6 construct: also called RPS10; cbe_2826346

[3] = molecular target: T1, testis-specific protein NYD-TSP1; assay: Y2H; INT ID 418
[4] = molecular target: T7, ankylosis, progressive homolog (mouse) (human, UniProt Q9HCJ1 1-492); assay: Y2H; INT ID 417
T7 construct: also called ANKH; cbe_3641816

[5] = molecular target: T2, hypothetical protein FLJ20259; assay: Y2H; INT ID 411
[6] = molecular target: T3, pumilio homolog 1 (Drosophila); assay: Y2H; INT ID 452
EphB1 = molecular target: T4, EphB1; assay: Y2H; INT ID 448
GSN = molecular target: T8, GSN (human, UniProt P06396 28-782); assay: Y2H; INT ID 449
T8 construct: also called cbe_4248793
T8 sequence (P06396 28-782 limits assumed): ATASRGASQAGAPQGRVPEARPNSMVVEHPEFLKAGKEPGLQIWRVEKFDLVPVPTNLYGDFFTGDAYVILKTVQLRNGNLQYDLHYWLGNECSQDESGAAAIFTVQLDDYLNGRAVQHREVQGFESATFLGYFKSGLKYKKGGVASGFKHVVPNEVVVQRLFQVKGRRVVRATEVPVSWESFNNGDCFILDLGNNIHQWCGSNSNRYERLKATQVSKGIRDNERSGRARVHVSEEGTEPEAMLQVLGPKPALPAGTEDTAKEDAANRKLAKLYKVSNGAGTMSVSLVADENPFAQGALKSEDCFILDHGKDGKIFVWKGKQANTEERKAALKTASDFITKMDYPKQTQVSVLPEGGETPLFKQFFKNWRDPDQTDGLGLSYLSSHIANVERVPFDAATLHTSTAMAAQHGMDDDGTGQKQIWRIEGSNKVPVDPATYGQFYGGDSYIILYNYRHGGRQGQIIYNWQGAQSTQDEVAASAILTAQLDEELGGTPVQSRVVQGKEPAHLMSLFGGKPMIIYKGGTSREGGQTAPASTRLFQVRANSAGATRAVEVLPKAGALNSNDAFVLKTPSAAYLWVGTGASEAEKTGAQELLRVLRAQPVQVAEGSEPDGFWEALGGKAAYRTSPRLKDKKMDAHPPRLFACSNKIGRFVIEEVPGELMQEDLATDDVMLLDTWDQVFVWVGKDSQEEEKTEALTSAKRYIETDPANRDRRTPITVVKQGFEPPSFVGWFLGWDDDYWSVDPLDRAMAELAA

T7 sequence (Q9HCJ1 whole entry): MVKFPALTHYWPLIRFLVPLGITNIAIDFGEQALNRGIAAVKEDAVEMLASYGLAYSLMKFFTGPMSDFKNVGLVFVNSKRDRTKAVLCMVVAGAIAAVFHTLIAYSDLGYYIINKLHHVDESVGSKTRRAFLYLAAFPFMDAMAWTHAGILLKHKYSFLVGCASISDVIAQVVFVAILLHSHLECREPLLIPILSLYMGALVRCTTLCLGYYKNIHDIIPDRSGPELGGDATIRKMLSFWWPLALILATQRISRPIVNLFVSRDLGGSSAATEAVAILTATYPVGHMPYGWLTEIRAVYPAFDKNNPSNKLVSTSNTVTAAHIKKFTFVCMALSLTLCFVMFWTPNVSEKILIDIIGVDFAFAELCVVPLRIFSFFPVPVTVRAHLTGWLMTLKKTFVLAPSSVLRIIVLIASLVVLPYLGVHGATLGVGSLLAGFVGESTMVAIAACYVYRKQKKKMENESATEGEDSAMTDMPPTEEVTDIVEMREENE

B1
binding result [1]: binds

B2
binding result [2]: binds

B3
binding result (GNB2L1): binds
binding result (ribosomal protein S10): binds
binding result [3]: binds
binding result [4]: binds
binding result [5]: binds

B4
binding result [6]: binds
binding result (EphB1): binds
binding result (GSN): binds

Source: patent publication US20050100554A1 (published 2005)
